Assay results reported in patent US20170368189.

What was measured:
[1] = target: T1, Permanent Lys26 CNP-38 PEG4x10 kDa conjugate 12g (not fully specified)
T1 chain: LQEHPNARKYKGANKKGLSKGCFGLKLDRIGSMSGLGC

[2] = target: T2, Permanent N-terminal CNP-38 PEG 5 kDa conjugate 15e (not fully specified)
T2 chain: T1 chain

[3] = target: T3, Permanent N-terminal CNP-34 PEG 5 kDa conjugate 14e (not fully specified)
T3 chain: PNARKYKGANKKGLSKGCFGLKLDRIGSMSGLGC

Measured: half life norm. [h] (in vitro NEP digest)

B1: recombinant human Neutral Endopeptidase (NEP) (protein)
chain: YDDGICKSSDCIKSAARLIQNMDATTEPCTDFFKYACGGWLKRNVIPETSSRYGNFDILRDELEVVLKDVLQEPKTEDIVAVQKAKALYRSCINESAIDSRGGEPLLKLLPDIYGWPVATENWEQKYGASWTAEKAIAQLNSKYGKKVLINLFVGTDDKNSVNHVIHIDQPRLGLPSRDYYECTGIYKEACTAYVDFMISVARLIRQEERLPIDENQLALEMNKVMELEKEIANATAKPEDRNDPMLLYNKMTLAQIQNNFSLEINGKPFSWLNFTNEIMSTVNISITNEEDVVVYAPEYLTKLKPILTKYSARDLQNLMSWRFIMDLVSSLSRTYKESRNAFRKALYGTTSETATWRRCANYVNGNMENAVGRLYVEAAFAGESKHVVEDLIAQIREVFIQTLDDLTWMDAETKKRAEEKALAIKERIGYPDDIVSNDNKLNNEYLELNYKEDEYFENIIQNLKFSQSKQLKKLREKVDKDEWISGAAVVNAFYSSGRNQIVFPAGILQPPFFSAQQSNSLNYGGIGMVIGHEITHGFDDNGRNFNKDGDLVDWWTQQSASNFKEQSQCMVYQYGNFSWDLAGGQHLNGINTLGENIADNGGLGQAYRAYQNYIKKNGEEKLLPGLDLNHKQLFFLNFAQVWCGTYRPEYAVNSIKTDVHSPGNFRIIGTLQNSAEFSEAFHCRKNSYMNPEKKCRVW
Almost no proteolysis after 4 days.: [1] | [2] | [3]
